Experimental data reported in patent US20190307836A1 (Bicycle, published 2019).
Starred links: 1 amine or outer side, 2 acyl side, 3 side chain; linkers in the order of their positions; H or OH if unused. Positions of bridges follow the written chain, without caps; N, C: chain ends. Non-standard residues stand in square brackets, D forms with d. Chains are numbered I, II in the order given. No end group written: not given here. *: point of attachment. TATA = O=C(CC[*:1])N1CN(C(=O)CC[*:2])CN(C(=O)CC[*:3])C1; 1Nal = N[C@@H](Cc1cccc2ccccc12)C(=O)O; Hyp = O=C(O)[C@@H]1C[C@@H](O)CN1; hArg = N=C(N)NCCCC[C@H](N)C(=O)O; tBuAla = CC(C)(C)C[C@H](N)C(=O)O; Nle = CCCC[C@H](N)C(=O)O; Pent4ynoyl = C#CCCC(=O)*; Dap = NC[C@H](N)C(=O)O; βAla = NCCC(=O)O; Sar = CNCC(=O)O

T1: Human Nectin-4 (residues Gly32-Ser349; NCBI RefSeq: NP_112178.2) with C-terminal FLAG tag (human, UniProt Q96NY8 32-349, randomly biotinylated with EZ-Link Sulfo-NHS-LC-LC-Biotin)
T1 construct: range 32-349; also called human Nectin-4 protein; not shown: C-terminal FLAG tag
T1 sequence (looked up): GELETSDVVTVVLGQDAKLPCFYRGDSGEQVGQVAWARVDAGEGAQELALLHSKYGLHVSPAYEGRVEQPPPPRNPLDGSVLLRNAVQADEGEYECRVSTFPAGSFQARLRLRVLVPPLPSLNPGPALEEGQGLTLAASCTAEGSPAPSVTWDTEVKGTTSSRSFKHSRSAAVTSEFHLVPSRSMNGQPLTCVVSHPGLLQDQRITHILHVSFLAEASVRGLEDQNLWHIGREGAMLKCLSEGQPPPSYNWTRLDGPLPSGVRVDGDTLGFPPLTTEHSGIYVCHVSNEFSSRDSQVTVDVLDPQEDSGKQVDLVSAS

B1: heterotandem bicyclic peptide complex BCY8854 (peptide)
peptide 1: CPXDCMXDWSTPXWC
peptide 2: ACIEEGQYCFADPYXC
modifications: BCY7732: N-terminal acetyl; Nle12; C-terminal Dap (diaminopropionic acid) bearing the linker; Ci, Cii, Ciii on TATA scaffold; BCY8846: N-terminal [PYA]-[B-Ala]-[Sar10]- (linker on PYA); 1Nal2, dD3, HArg5, HyP11; Ci, Cii, Ciii on TATA scaffold
B2: heterotandem bicyclic peptide complex BCY10572 (peptide)
peptide 1: CP[1Nal][dD]CM[hArg]DWSTP[Hyp]WC
peptide 2: Ac-C[tBuAla]PE[dK](Pent4ynoyl)PYCFADPY[Nle]CA
modifications: linker I:1-I:5-I:15, II:1-II:8-II:15 via TATA; not fully specified (C-terminus, bridges); also: chains joined by PEG5 linker on chain 1 N-terminus, triazole to D-Lys(PYA)
B3: heterotandem bicyclic peptide complex BCY10000 (peptide)
peptide 1: {Pent4ynoyl-βAla}-[Sar][Sar][Sar][Sar][Sar][Sar][Sar][Sar][Sar][Sar]CP[1Nal][dD]CM[hArg]DWSTP[Hyp]WC
peptide 2: Ac-C[tBuAla]PE[dA]PYCFADPY[Nle]C[Dap]
modifications: linker I:11-I:15-I:25, II:1-II:8-II:15 via TATA; not fully specified (C-terminus); numbers in words are those of the source; also: linker to a chain's N/C-terminus via PEG12
B4: heterotandem bicyclic peptide complex BCY10571 (peptide)
peptide 1: CP[1Nal][dD]CM[hArg]DWSTP[Hyp]WC
peptide 2: Ac-C[tBuAla]PK(Pent4ynoyl)[dA]PYCFADPY[Nle]CA
modifications: linker I:1-I:5-I:15, II:1-II:8-II:15 via TATA; not fully specified (C-terminus, bridges); also: chains joined by PEG5 linker on chain 1 N-terminus, triazole to K(PYA)
B5: heterotandem bicyclic peptide complex BCY9759 (peptide)
peptide 1: CPXDCMXDWSTPXWC
peptide 2: ACIEEGQYCFADPYXC
modifications: BCY7732: N-terminal acetyl; Nle12; C-terminal Dap (diaminopropionic acid) bearing the linker; Ci, Cii, Ciii on TATA scaffold; BCY8116: linker on N-terminus; 1Nal2, dD3, HArg5, HyP11; Ci, Cii, Ciii on TATA scaffold
B6: heterotandem bicyclic peptide complex BCY9173 (peptide)
peptide 1: {Pent4ynoyl-βAla}-[Sar][Sar][Sar][Sar][Sar][Sar][Sar][Sar][Sar][Sar]A[hArg]DC[Hyp]LVNPLCLHP[dD]W[hArg]C
peptide 2: Ac-C[tBuAla]PE[dA]PYCFADPY[Nle]C[Dap]
modifications: linker I:14-I:21-I:28, II:1-II:8-II:15 via TATA; numbers in words are those of the source; also: heterotandem: PYA of chain 1 linked via PEG12 to C-terminal Dap of chain 2
B7: heterotandem bicyclic peptide complex BCY7985 (peptide)
peptide 1: AXDCXLVNPLCLHPDWXC
peptide 2: ACIEEGQYCFADPYXC
modifications: BCY7732: N-terminal acetyl; Nle12; C-terminal Dap (diaminopropionic acid) bearing the linker; Ci, Cii, Ciii on TATA scaffold; BCY6169: N-terminal [PYA]-[B-Ala]-[Sar10]- (linker on PYA); HArg in the A-[HArg]-D extension; HyP1, dD10, HArg12; Ci, Cii, Ciii on TATA scaffold
notes: also called EphA2-CD137 heterotandem BCY7985
B8: heterotandem bicyclic peptide complex BCY8943 (peptide)
peptide 1: VGPCLWDPTPCANLHLXC
peptide 2: ACIEEGQYCFADPYXC
modifications: BCY7732: N-terminal acetyl; Nle12; C-terminal Dap (diaminopropionic acid) bearing the linker; Ci, Cii, Ciii on TATA scaffold; BCY8941: N-terminal [PYA]-[B-Ala]-[Sar10]- (linker on PYA); HArg12; Ci, Cii, Ciii on TATA scaffold
B9: heterotandem bicyclic peptide complex BCY9758 (peptide)
peptide 1: AXDCXLVNPLCLHPDWXC
peptide 2: ACIEEGQYCFADPYXC
modifications: BCY7732: N-terminal acetyl; Nle12; C-terminal Dap (diaminopropionic acid) bearing the linker; Ci, Cii, Ciii on TATA scaffold; BCY6099: N-terminal [B-Ala]-[Sar10]- (linker on N-terminus); HArg in the A-[HArg]-D extension; HyP1, dD10, HArg12; Ci, Cii, Ciii on TATA scaffold
B10: heterotandem bicyclic peptide complex BCY8942 (peptide)
peptide 1: AXDCXLVNPLCLHPDWXC
peptide 2: ACIEEGQYCFADPYXC
modifications: BCY8045: N-terminal acetyl; D-Ala8, Nle12; C-terminal Dap (diaminopropionic acid) bearing the linker; Ci, Cii, Ciii on TATA scaffold; BCY6169: N-terminal [PYA]-[B-Ala]-[Sar10]- (linker on PYA); HArg in the A-[HArg]-D extension; HyP1, dD10, HArg12; Ci, Cii, Ciii on TATA scaffold
B11: heterotandem bicyclic peptide complex BCY9351 (peptide)
peptide 1: CPXDCMXDWSTPXWC
peptide 2: ACIEEGQYCFADPYXC
modifications: BCY8045: N-terminal acetyl; D-Ala8, Nle12; C-terminal Dap (diaminopropionic acid) bearing the linker; Ci, Cii, Ciii on TATA scaffold; BCY8846: N-terminal [PYA]-[B-Ala]-[Sar10]- (linker on PYA); 1Nal2, dD3, HArg5, HyP11; Ci, Cii, Ciii on TATA scaffold
B12: heterotandem bicyclic peptide complex BCY9350 (peptide)
peptide 1: CPXDCMXDWSTPXWC
peptide 2: ACIEEGQYCFADPYXC
modifications: BCY7732: N-terminal acetyl; Nle12; C-terminal Dap (diaminopropionic acid) bearing the linker; Ci, Cii, Ciii on TATA scaffold; BCY11942: N-terminal [PYA]-[B-Ala]-[Sar10]- (linker on PYA); 1Nal2, dD3, HArg5, dW7, HyP11, dW12; Ci, Cii, Ciii on TATA scaffold

The binders below were run against CD137 on human PBMC (anti-CD3 stimulated) (human, UniProt Q07011 24-255) (assay: cell-based or functional assay).
Sequence of CD137 on human PBMC (anti-CD3 stimulated) (Q07011 24-255): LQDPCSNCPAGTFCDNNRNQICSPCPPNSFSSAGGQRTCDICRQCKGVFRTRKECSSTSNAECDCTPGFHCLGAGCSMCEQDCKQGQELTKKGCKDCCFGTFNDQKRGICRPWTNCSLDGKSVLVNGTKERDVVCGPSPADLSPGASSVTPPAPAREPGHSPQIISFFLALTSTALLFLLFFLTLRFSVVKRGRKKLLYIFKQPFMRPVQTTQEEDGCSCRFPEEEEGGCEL

Binder | EC50 (nM), IFN-γ secretion, human PBMC co-culture with 4T1-D02(Nectin4+) | max IFN-γ (pg/ml), human PBMC co-culture with 4T1-D02(Nectin4+)
B1 | 0.89 nM | 16000 pg/mL
B2 | 0.25 nM | 17900 pg/mL
B3 | 0.21 nM | 19600 pg/mL
B4 | 0.44 nM | 18300 pg/mL

What follows are binders tested against CD137 expressed on cells (CHO cells expressing CD137); Jurkat cells of the Promega CD137 luciferase reporter … (UniProt Q07011 24-255, limits assumed) (assay: cell-based or functional assay).
Sequence of CD137 expressed on cells (CHO cells expressing CD137); Jurkat cells of the Promega CD137 luciferase reporter … (Q07011 24-255 limits assumed): as the sequence (Q07011 24-255) above

Binder | EC50 (nM), CD137 reporter assay, co-culture with H1376 (Nectin4) | EC50 (nM), CD137 reporter assay, co-culture with SC-OV-3 (EphA2) | Fold Induction over Background, CD137 reporter assay, co-culture with SC-OV-3 (EphA2) | Fold Induction over Background, CD137 reporter assay, co-culture with PC3 (EphA2)
B5 | 2.7 nM |  |  | 
B1 | 1.2 nM |  |  | 
B6 |  | 0.94 nM | 21 fold | 
B3 | 0.58 nM |  |  | 
B7 |  | 4 nM | 15 fold | 
B8 |  |  |  | < 2 fold
B9 |  | 1.2 nM | 7 fold | 

These binders were tested against T2, human EphA2 protein (human, UniProt P29317 25-534, limits assumed, biotinylated with EZ-Link Sulfo-NHS-LC-Biotin) (assay: SPR (Biacore T200), biotinylated human EphA2 on streptavidin chip).
T2 construct: Construct not described
Protocol: (§1) Streptavidin was immobilized on the chip using standard amine-coupling chemistry at 25° C. with HBS-N (10 mM HEPES, 0.15 M NaCl, pH 7.4) as the running buffer. Briefly, the carboxymethyl dextran surface was activated with a 7 min injection of a 1:1 ratio of 0.4 M 1-ethyl-3-(3-dimethylaminopropyl) carbodiimide hydrochloride (EDC)/0.1 M N-hydroxy succinimide (NHS) at a flow rate of 10 μl/min. […] Data were corrected for DMSO excluded volume effects. All data were double-referenced for blank injections and reference surface using standard processing procedures and data processing and kinetic fitting were performed using Scrubber software, version 2.0c (BioLogic Software). Data were fitted using simple 1:1 binding model allowing for mass transport effects where appropriate.

T2 sequence (P29317 25-534 limits assumed): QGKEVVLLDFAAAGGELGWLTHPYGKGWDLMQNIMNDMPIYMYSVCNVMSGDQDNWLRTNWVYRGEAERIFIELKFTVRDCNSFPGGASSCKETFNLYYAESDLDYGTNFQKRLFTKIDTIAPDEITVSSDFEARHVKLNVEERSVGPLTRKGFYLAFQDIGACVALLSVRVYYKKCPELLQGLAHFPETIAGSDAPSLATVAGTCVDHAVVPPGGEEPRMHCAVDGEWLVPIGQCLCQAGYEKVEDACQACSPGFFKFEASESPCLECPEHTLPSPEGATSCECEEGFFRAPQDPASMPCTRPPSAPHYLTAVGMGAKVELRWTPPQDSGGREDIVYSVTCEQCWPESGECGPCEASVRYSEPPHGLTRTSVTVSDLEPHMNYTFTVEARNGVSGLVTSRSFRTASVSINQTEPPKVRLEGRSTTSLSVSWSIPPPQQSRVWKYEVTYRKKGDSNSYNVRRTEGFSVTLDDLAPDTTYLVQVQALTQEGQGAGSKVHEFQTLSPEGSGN

Binder | Kd
B10 | 1.7 nM
B6 | 2.1 nM
B7 | 2 nM
B9 | 1.5 nM

The binders below were run against CD137 expressed on cells (CHO cells expressing CD137; Jurkat cells of the Promega CD137 luciferase reporter assay) (UniProt Q07011) (assay: cell-based or functional assay).
Sequence of CD137 expressed on cells (CHO cells expressing CD137; Jurkat cells of the Promega CD137 luciferase reporter assay) (Q07011 24-255 limits assumed): as the sequence (Q07011 24-255) above

Binder | Fold Induction over Background, CD137 reporter assay, co-culture with H1376 (Nectin4) | Fold Induction over Background, CD137 reporter assay, co-culture with PC3 (EphA2)
B11 | < 2 fold | 
B10 |  | < 2 fold
B12 | < 2 fold | 

Each binder was assayed against T1, Human Nectin-4 (residues Gly32-Ser349; …) (assay: SPR (Biacore 3000), biotinylated human Nectin-4 on streptavidin chip).
Protocol: as §1, with “[…] Buffer was changed to PBS/0.05% Tween 20 and a dilution series of” for “Briefly,”, “peptides” for “carboxymethyl dextran surface”, “prepared in this buffer” for “activated”, “final DMSO concentration” for “7 min injection”, “0.5%.” for “a 1:1 ratio of 0.4 M 1-ethyl-3-(3-dimethylaminopropyl) carbodiimide hydrochloride (EDC)/0.1 M N-hydroxy succinimide (NHS) at a flow rate of 10 μl/min.”

Binder | Kd
B11 | 2.47 nM
B5 | 2.14 nM
B1 | 2.76 nM
B3 | 2.26 nM

Each binder was assayed against T3, Recombinant human CD137 (R&D systems) (human, UniProt Q07011 24-186, biotinylated with EZ-Link Sulfo-NHS-LC-LC-Biotin) (assay: SPR (Biacore), biotinylated human CD137 on streptavidin chip).
T3 construct: Bought protein; also called human CD137 protein; TNFRSF9
Protocol: The protein was desalted to remove uncoupled biotin using spin columns into PBS.
For analysis of peptide binding, a Biacore T200 or a Biacore 3000 instrument was used with a XanTec CMD500D chip. Streptavidin was immobilized on the chip using standard amine-coupling chemistry at 25° C. with HBS-N (10 mM HEPES, 0.15 M NaCl, pH 7.4) as the running buffer. Briefly, the carboxymethyl dextran surface was activated with a 7 min injection of a 1:1 ratio of 0.4 M 1-ethyl-3-(3-dimethylaminopropyl) carbodiimide hydrochloride (EDC)/0.1 M N-hydroxy succinimide (NHS) at a flow rate of 10 μl/min. For capture of streptavidin, the protein was diluted to 0.2 mg/ml in 10 mM sodium acetate (pH 4.5) and captured by injecting 120 μl of onto the activated chip surface. Residual activated groups were blocked with a 7 min injection of 1 M ethanolamine (pH 8.5) and biotinylated CD137 captured to a level of 270-1500 RU. Buffer was changed to PBS/0.05% Tween 20 and a dilution series of the peptides was prepared in this buffer with a final DMSO concentration of 0.5%. The top peptide concentration was 500 nM with 6 further 2-fold or 3-fold dilutions. The SPR analysis was run at 25° C. at a flow rate of 90 μl/min with 60 seconds association and 900 seconds dissociation. After each cycle a regeneration step (10 μl of 10 mM glycine pH 2) was employed. Data were corrected for DMSO excluded volume effects as needed. All data were double-referenced for blank injections and reference surface using standard processing procedures and data processing and kinetic fitting were performed using Scrubber software, version 2.0c (BioLogic Software). Data were fitted using simple 1:1 binding model allowing for mass transport effects where appropriate.

Binder | Kd
B11 | 3640 nM
B5 | 44.3 nM
B1 | 108 nM
B10 | 853 nM
B6 | 7.98 nM
B2 | 5 nM
B3 | 6.19 nM
B12 | 69.4 nM
B4 | 12 nM
B7 | 143 nM
B8 | 156 nM
B9 | 189 nM
